Results as given in patent publication US20260327578A1, “TRANSGLUTAMINASES AND USES THEREOF” (CURIE CO. INC., priority 2023, published 2026).

Columns and labels:
[1] = Thermal stability at 55 °C, specific activity by colorimetric hydroxamate assay; format: biochemical
Procedure: Tgase activity was measured herein using a colorimetric hydroxamate activity assay (Folk and Cole (1965) J Biol Chemistry 240 (7): 2951-2960). Briefly, the hydroxamate assay uses N-benzyloxycarbonyl-L-glutaminyl-glycine (ZQG) as a low molecular weight amine acceptor substrate and hydroxylamine as an amine donor. In the presence of catalytically active Tgase, the hydroxylamine is incorporated to form Z-glutamylhydroxamate-glycine, which develops a colored complex with iron (III), detectable at 525 nm after incubation at 37° C. for 5-200 minutes. The calibration was performed using L-glutamic acid gamma-monohydroxamate (Millipore® Sigma®) as a standard. One unit of Tgase was defined as the amount of enzyme that catalyzes formation of 1 μmol of the peptide derivative of gamma-glutamylhydroxylamine per minute. Activity of Tgase variants is depicted in Tables 2-4.
A commercially available wild-type Tgase (Ajinimoto®, Activa® TI formulation) formulated at 0.75-1.0% enzyme in maltodextrin was purchased from Amazon.com and dissolved in water at 20% w/v. The concentration of the mature Tgase in the solution was confirmed by high-performance liquid chromatography (HPLC) and the sample was further diluted to 0.1 g/L of enzyme. Following dilution, the enzyme was subjected to the hydroxamate assay as described in Example 4 to determine specific activity. The specific activity of the commercial wild-type Tgase compared to Tgase variant A3 (SEQ ID NO: 4), further comprising an N-terminal methionine, is shown in FIG. 1.
The thermal stability of Tgase variant A3 (SEQ ID NO: 4) compared to the commercial wild-type Tgase was evaluated by incubating the samples at 55° C. and testing the enzyme concentration and activity at various timepoints. Six timepoints were tested: 0, 30, 60, 120, 240, and 480 minutes.
The enzyme concentration was measured by HPLC. The samples were diluted 10-fold in 50 mM phosphate pH 7.4, 100 mM NaCl. The samples were tested by reverse phase using a Zorbax SB300-C8 column with 0.1% trifluoroacetic acid in water (MPA) and 0.08% trifluoroacetic acid in acetonitrile (MPB).
The activity was determined using the colorimetric activity assay described in Example 4A. The specific activity (U/mg) of the samples was calculated using the concentration of each sample as determined per Example 4D (results shown in Table 10).

[2] = test system: C. albicans (ATCC 10231); assay: MIC determination against C. albicans; format: cell-based
Procedure: E. coli (ATCC 8739) and C. albicans (ATCC 10231) were acquired from the American Type Culture Collection (ATCC) (Manassas, VA) and maintained as −80° C. frozen glycerol stocks.
For MIC determination of yeast cultures, C. albicans (ATCC 10231) was grown overnight (24 hours) in Sabouraud Dextrose broth at 30° C. The following day, the cell density of the saturated cultures was calculated using OD600 and cultures were diluted to 104 to 10^6 CFU/mL in sterile Sabouraud Dextrose broth media to generate the inoculum, and 100 μL of the inoculum was combined with 100 μL of serially diluted Tgase variant at a range of 0.0001-0.05 weight percent. The cultures were grown overnight at 30° C. and growth curves were measured by OD600 on a BioTek® Synergy Plate Reader. All test conditions were performed in triplicate. MIC was determined to be […] (0.005% w/v) against C. albicans for the enzyme described in SEQ ID NO: 4 using OD600.

B1: A3: Tgase variant S2P Q50S Q74A K91H Q124L K151R K152R N282M G283A relative to SEQ ID NO: 2 (protein, UniProt P81453 77-407, looked up, variant S2P Q50S Q74A K91H Q124L K151R K152R N282M G283A)
Protein-glutamine …: DPDDRVTPPAEPLDRMPDPYRPSYGRAETVVNNYIRKWQQVYSHRDGRKSQMTEEQREWLSYGCVGVTWVNSGAYPTNRLAFASFDEDRFHNELKNGRPRSGETRAEFEGRVAKESFDEEKGFLRAREVASVMNRALENAHDESAYLDNLRRELANGNDALRNEDARSPFYSALRNTPSFKERNGGNHDPSRMKAVIYSKHFWSGQDRSSSADKRKYGDPDAFRPAPGTGLVDMSRDRNIPRSPTSPGEGFVNFDYGWFGAQTEADADKTVWTHGNHYHAPMASLGAMHVYESKFRNWSEGYSDFDRGAYVITFIPKSWNTAPDKVKQGWP
- Specific activity ([1]; timepoint 0 min): 46.0 U/mg
- Specific activity ([1]; timepoint 30 min): 44.4 U/mg
- Specific activity ([1]; timepoint 60 min): 43.3 U/mg
- Specific activity ([1]; timepoint 120 min): 40.5 U/mg
- Specific activity ([1]; timepoint 240 min): 38.9 U/mg
- Specific activity ([1]; timepoint 480 min): 32.1 U/mg
- portion remaining soluble during the heat treatment ([1]; up to 480 min, compared to wild-type Tgase, HPLC): greater portion
- MIC ([2]; OD600): 100 ppm
- MIC ([2]; OD600, printed in brackets after the ppm value): 0.005 % w/v
